Experimental data taken from patent US20140348857A1, “METHODS OF DIAGNOSIS AND TREATMENT OF ENDOPLASMIC RETICULUM (ER) STRESS-RELATED CONDITIONS” (MASSACHUSETTS INSTITUTE OF TECHNOLOGY, priority 2011, published 2014).

Tests used:
PARP-16 = target: T1, PARP-16 (Homo sapiens, UniProt Q8N5Y8); experiment: 32P-NAD+ incorporation assay with recombinant GST-PARP-16 (self-modification); format: biochemical; details: of wild-type GST-PARP-16; purified from E. coli
T1 construct: Asterisk=full-length proteins; made in house; host or cells: E. coli BL21 RIPL
T1 sequence (Q8N5Y8 1-322): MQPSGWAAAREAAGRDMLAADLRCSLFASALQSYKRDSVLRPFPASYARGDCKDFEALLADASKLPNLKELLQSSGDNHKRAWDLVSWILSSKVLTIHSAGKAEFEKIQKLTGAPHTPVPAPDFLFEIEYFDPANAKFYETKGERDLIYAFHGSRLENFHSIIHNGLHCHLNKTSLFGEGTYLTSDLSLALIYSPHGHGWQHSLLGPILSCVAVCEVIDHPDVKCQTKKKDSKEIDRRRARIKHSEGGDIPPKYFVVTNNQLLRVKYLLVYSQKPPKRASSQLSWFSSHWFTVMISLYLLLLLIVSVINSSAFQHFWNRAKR
Text: Human PARP-16 (ADP-ribosyl)ates itself and contains histidine and tyrosine residues at amino acid 152 and 182 within its catalytic domain, residues thought to be critical for enzymatic activity (FIG. 1B) (Kleine et al., Mol. Cell 32: 57-69, 2008). To determine if these residues are required for enzymatic activity, GST-PARP-16 and GST-PARP-16^H152Q Y182A were expressed and purified in E. coli, and ^32P-NAD^+ incorporation assays performed.
(§1) For ER microsome-based assays including NAD^+ incorporation and immunoprecipitation, ER microsomes were fractionated from HeLa cells via isopycnic flotation method as described in Stephens et al., Methods Mol Biol. 419: 197-214, 2008, and incubated with 100 μM β-NAD^+ (MP Biomedicals) and 2.5 μCi of ^32P-NAD^+ (Perkin Elmer) in a PARP reaction buffer (50 mM HEPES pH 7.4, 150 mM NaCl, 1 mM MgCl2, 10 mM EGTA, 1 mM DTT, 0.1 mM Na3VO4, 50 mM NaF, 5 mM β-glycerophosphate, 1 μM ADP-HPD, and protease inhibitor cocktail) at 25° C. for 30 min. The ratio between unlabeled and labeled NAD^+ was kept constant upon titration of NAD^+ concentration. The ^32P-labeled ER microsomes were then lysed by addition of Triton X-100 at 1%. Proteins were immunoprecipitated, eluted in a 1× Laemmli sample buffer by boiling at 65° C. for 10 min, and then analyzed using autoradiogram and immunoblotting. […]

PERK = experiment: NAD+ incorporation assay with ER microsome-purified PERK and recombinant GST-PARP-16; format: biochemical, human; details: PERK purified from ER microsomes of unstressed PARP-16 knockdown cells
Text: We examined NAD^+ incorporation onto GFP-PERK or GFP-IRE1α via EMAA in cells transfected with control or PARP-16 siRNA, treated with or without ER stress inducing drugs. Low level (ADP-ribosyl)ation of GFP-PERK and GFP-IRE1α was detected in control knock-down cells in the absence of drug (FIGS. 6C and 6D), likely due to the previously described UPR induction upon PERK or IRE1α expression (Bertolotti et al., Nat. Cell Biol. 2: 326-332, 2000; Kimata et al., Curr. Opin. Cell Biol. 23: 135-142, 2011).
as §1

GFP-PERK = experiment: PERK kinase assay after (ADP-ribosyl)ation of ER microsomes by GST-PARP-16; format: biochemical, human; details: versus GST-PARP-16 samples; depending on NAD concentration
Description: We examined PERK and IRE1α kinase activity in response to (ADP-ribosyl)ation by PARP-16 via self-phosphorylation assays. ER microsomes purified from GFP-PERK- or GFP-IRE1α-expressing cells were washed with 1M NaCl to remove bound PARP-16, returned to physiological salt buffer, split into duplicate reactions, and incubated with unlabeled NAD^+ plus either GST-PARP-16 or GST-PARP-16^H152Q Y182A, or ^32P-NAD^+ plus either recombinant protein. (ADP-ribosyl)ated GFP-PERK or GFP-IRE1α were extracted from the microsomes and purified under 1 M NaCl conditions to remove added recombinant PARP-16 proteins. Reactions containing unlabeled NAD^+ were incubated with ^32P-ATP, and reactions containing ^32P-NAD^+ were incubated with unlabeled ATP. […] Phosphorylation by GFP-IRE1α at the molecular weight of GST-PARP-16 and GST-PARP16^H152Q Y182A was also detected (FIG. 7E).
PERK and IRE1α kinase assays were performed as described herein. […] Proteins were immunoprecipitated, eluted in 1× Laemmli sample buffer by heating at 65° C. for 10 min, and then analyzed using autoradiogram and immunoblotting.

- 32P-NAD+ incorporation activity relative to wild-type (PARP-16): ~6%
- reduction of phosphorylation by PERK at the molecular weight of GST-PARP-16 (GFP-PERK): 5-10 fold
B1: GST-PARP-16^H152Q Y182A: recombinant GST-PARP-16 catalytically inactive mutant, His152 and Tyr182 mutated, purified in E. coli (protein, UniProt Q8N5Y8 1-322, looked up, variant H152Q Y182A)
Protein …: MQPSGWAAAREAAGRDMLAADLRCSLFASALQSYKRDSVLRPFPASYARGDCKDFEALLADASKLPNLKELLQSSGDNHKRAWDLVSWILSSKVLTIHSAGKAEFEKIQKLTGAPHTPVPAPDFLFEIEYFDPANAKFYETKGERDLIYAFQGSRLENFHSIIHNGLHCHLNKTSLFGEGTALTSDLSLALIYSPHGHGWQHSLLGPILSCVAVCEVIDHPDVKCQTKKKDSKEIDRRRARIKHSEGGDIPPKYFVVTNNQLLRVKYLLVYSQKPPKRASSQLSWFSSHWFTVMISLYLLLLLIVSVINSSAFQHFWNRAKR
modifications: GST fusion
- ADP-ribosylation of PERK (PERK): not
